Test results reported in patent US20210246209A1 (SHANGHAI JUNSHI BIOSCIENCES, published 2021).

What was measured:
[1] = molecular target: T1, murine BTLA (murine, UniProt Q7TSA3 30-183, limits assumed); assay: sheet shows OD:450nm against Log:ng/mL (ELISA-type readout); the text describes a Fortebio/biosensor assay with BTLA coupled to a chip
T1 sequence (looked up): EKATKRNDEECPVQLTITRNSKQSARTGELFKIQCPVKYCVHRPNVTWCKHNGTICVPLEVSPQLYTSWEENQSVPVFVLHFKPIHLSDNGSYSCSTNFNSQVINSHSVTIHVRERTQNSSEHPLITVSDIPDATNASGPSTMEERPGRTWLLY

[2] = molecular target: T2, human BTLA expressed on cells (human, UniProt Q7Z6A9 31-289); assay: cell-based or functional assay
[3] = molecular target: T3, recombinant protein of human BTLA extracellular domain (hBTLA-ECD-FC) (human, UniProt Q7Z6A9 31-157, biotin-labeled in the FACS blocking assays (site not stated)); assay: FACS, blocking of biotin-labeled hBTLA binding to hHVEM-293F cells
T3 construct: extracellular domain; also called BTLA-Fc; biotin-labeled hBTLA; not shown: Fc of the self-constructed HX1-FC expression plasmid
T3 sequence (looked up): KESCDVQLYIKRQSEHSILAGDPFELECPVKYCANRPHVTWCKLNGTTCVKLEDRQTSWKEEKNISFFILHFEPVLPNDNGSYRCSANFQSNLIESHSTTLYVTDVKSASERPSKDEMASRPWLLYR
Method: Then the cells were mixed with previously biotin-labeled hBTLA (1 μg/mL) protein, incubated at 4° C. for 15 minutes, followed by mixing with 50 μL of humanized antibody diluent (initial concentration: 5 μg/mL, 3-fold titration) at different concentrations, and incubating at room temperature for 30 minutes. After being washed with an FACS buffer twice, the cells were added with 100 μL of goat anti-human IgG-PE antibody, incubated for 30 minutes away from light, and assayed by FACS after two washes with an FACS buffer. The washed cells were resuspended in 4° C. buffer containing propidium iodide (PI) and 0.02% sodium azide that prevents receptor internalization and analyzed by flow cytometry. Viable cells were gated on the basis of PI positive cells being excluded from the FSC/SSC gate and their geometric mean fluorescence intensity was measured. The data were analyzed using a sigmoidal dose-response model within Prism™ software.
The […] antibodies hu17, hu18, and hu19 can effectively block the binding of human BTLA to HVEM on the cell surface.

[4] = molecular target: T3, recombinant protein of human BTLA …; assay: SPR, Biacore T200, BTLA-Fc amine-coupled to chip, antibody as analyte, 1:1 fit
Method: The assay was carried out using a Biacore T200 instrument (GE Healthcare). Series S CMS chip was loaded on the instrument and the system buffer used was HBS-EP+(10 mM HEPES, pH 7.4, 150 mM NaCl, 3 mM EDTA, 0.05% surfactant P20). The BTLA-Fc antigens were coupled in a chip detection channel: injecting a mixed solution of 400 mM EDC and 100 mM NHS at 10 μL/min for 420 s to activate the surface of the chip, diluting the BTLA-Fc antigens in a 10 mM sodium acetate/acetic acid (pH 5.5) buffer to a final concentration of 20 μg/mL and injecting at 10 μL/min for coupling, and injecting a 1M ethanolamine-hydrochloric acid solution (pH 8.5) at 10 μL/min for 420 s for blocking.
Antibodies were diluted in a 2-fold gradient with Biacore system buffer for a total of 6 concentration points. Concentration gradients were 24 nM, 12 nM, 6 nM, 3 nM, 1.5 nM and 0.75 nM, with 24 nM being a replicate. Data were analyzed using Biacore T200 Evaluation Software (version no. 3.0, GE Healthcare). Data were fitted using a model of 1:1 Binding. The kinetic constants of the binding of the antibodies to the antigens, namely, the association rate constant ka (1/Ms), dissociation rate constant kd (1/s) and the affinity constant kd (M), were obtained by fitting, and the results are shown in Table 8.

[5] = molecular target: T2, human BTLA expressed on cells; assay: FACS on 293F cells expressing hBTLA
Method: The humanized anti-BTLA antibodies were determined for their binding ability to hBTLA expressed on cells using cell-based flow cytometry (FACS). […] Then the cells were mixed with 50 μL of antibody diluent at different concentrations (initial concentration: 10 μg/mL, 3-fold titration), and incubated at room temperature for 30 minutes. After being washed with an FACS buffer twice, the cells were added with 100 μL of goat anti-human IgG-PE antibody, incubated for 30 minutes away from light, and assayed by FACS after two washes with an FACS buffer. The washed cells were resuspended in 4° C. buffer containing propidium iodide (PI) and 0.02% sodium azide that prevents receptor internalization and analyzed by flow cytometry. Viable cells were gated on the basis of PI positive cells being excluded from the FSC/SSC gate and their geometric mean fluorescence intensity was measured. The data were analyzed using a sigmoidal dose-response model within Prism™ software.
The humanized antibodies hu17, hu18, and hu19 can effectively bind to hBTLA on 293 cells.

[6] = molecular target: T4, hBTLA (human BTLA protein coated on plates or coupled to a chip) (human, UniProt Q7Z6A9 31-157, limits assumed); assay: ELISA, hBTLA coated at 0.5 µg/mL, anti-human IgG4-HRP detection
T4 sequence (looked up): T3 sequence (looked up)
Method: The binding specificity of the humanized antibodies to hBTLA was determined by conventional ELISA method. A 96-well microplate was coated with 0.5 μg/mL hBTLA and incubated at 37° C. for 60 minutes. The solution in wells was then discarded, and the wells were washed 3 times with washing buffer, and blocked for 60 minutes with PBS containing 2% BSA. After being washed 3 times with washing buffer, the wells were added with gradiently-diluted antibodies, incubated at 37° C. for 60 minutes, and washed 3 times with washing buffer before adding a HRP-labeled mouse anti-human IgG4 secondary antibody diluted at 1:10000. The mixture was incubated at 37° C. for 1 hour, washed three times with washing buffer, and added with 100 μL of TMB substrate solution for color development at room temperature for 30 minutes, then the reaction was stopped with 100 μL of 2M hydrochloric acid solution and the absorbance was read at 450 nm.
The humanized antibodies hu17, hu18, and hu19 can specifically bind to hBTLA.

binding result [1]: no binding (tested: 1000 ng/mL) | EC50 (luciferase reporter, T cell activation) [2]: 0.257 µg/mL | IC50 [3]: 0.143 µg/mL | Kd [4]: 0.186 nM | koff [4]: 0.000116 s⁻¹ | kon [4]: 624000 M⁻¹ s⁻¹ | EC50 [5]: 0.0967 µg/mL | EC50 [6]: 0.0063 µg/mL
B1: humanized antibody hu17 (antibody, V domains shown)
VH: QVQLVQSGAEVKKPGASVKLSCKASGYNFKHTYAHWVRQAPGQGLEWIGRIDPANGNTKYDPKFQGRATMTADTASNTAYLELSSLRSEDTAVYYCVADHYGSSLLDYWGQGTLVTVSS
VL: DIVMTQTPLSLSVTPGQPASISCKSSQSLLDSDGKTYLNWFQQRPGQSPRRLIYLVSKLDSGVPDRFSGSGSGTDFTLKISRVEAEDVGVYYCWQGTYFPYTFGQGTKLEIK
notes: also called hull [sic]; humanized antibody 17
